Assay results published in the DeepSol protein solubility set.

Test: soluble on expression in E. coli; label from the status in PepcDB or PDB records

Q: Which “soluble on expression in E. coli” value does the source give for “MHVLIVDDEPLAREELSYLVSQHPQVTSVAEADSVAEAMEEMMDQKPDLLFLDIHLTDESGFDLAEKLTHLKKAPYLVFATAYDQYALKAFQVNAKDYILKPFEEEKITQVIEKASKEMGQAVPENTAEKGPKSEAIPIQGEDRIYLVAPEDIYLVSVEERQLSIFVDQQVYKMTGTLNSIEQKLPATLFIKTHRSFILNRTKIQEIQPWFNNTLQVILTNGSKVPVSRSYVKEFKEKLGLS” here?
A: not soluble

Q: Which “soluble on expression in E. coli” value does the source give for “MHVTRNVGKSQKLHHVSLKQVLSYLEPHEQEDTKPVTSTKNKGFLLFNSHQNTLNTHMHGAMNSPCIDFVMFSRGQHDEDNMSRRPPWKRERSMSTQHHHLNLSPNEDEELANCLVLLSNSGDAHGGDQHKQHGHGKGKTVKKQKTAQVFQCKACKKVFTSHQALGGHRASHKKVKGCFASQDKEEEEEEEYKEDDDDNDEDEDEEEDEEDKSTAHIARKRSNAHECTICHRVFSSGQALGGHKRCHWLTPSNYLRMTSLHDHHHSVGRPQPLDQPSLDLNLACQEYSVDPTAMSVGMIERDGGGNNHNATSSSWLKLASGDWS” here?
A: not soluble

Q: With “MHYCEPGWFELIRHRLAFFKDNAAPFKILFLADLHYSRFVPLSLISDAIALGIEQKPDLILLGGDYVLFDMSLNFSAFSDVLSPLAECAPTFACFGNHDRPVGTEKNHLIGETLKSAGITVLFNQATVIATPNRQFELVGTGDLWAGQCKPPPASEANLPRLVLAHNPDSKEVMRDEPWDLMLCGHTHGGQLRVPLVGEPFAPVEDKRYVAGLNAFGERHIYTTRGVGSLYGLRLNCRPEVTMLELVLEHHHHHH” as the sequence, how does the “soluble on expression in E. coli” value read?
A: not soluble

Q: Which “soluble on expression in E. coli” value does the source give for “MHYLSPLSLSLFLFCIEGHRESFSFFPSHDDGWAEPTARSEGKRERERERERERERGERGPTDTLSLSLSQFT” here?
A: not soluble

Q: Which “soluble on expression in E. coli” value does the source give for “MIAATPQAMDKQPSAKNQPCGIDKEVGTIANTVITLMPKYIDTNVIVLRHSCANRPPWRNAATNHANNPRNPSKNSTDITTPIDAAISGTACPFIRFSNSAIN” here?
A: not soluble

Q: Which “soluble on expression in E. coli” value does the source give for “MIAEQHQAVVDSGASKKGAKVGFVSLGCPKNLVDSERILTQLRTEGYDVTNSYDDAELVIVNTCGFIDSAVQESLDTIGEALAANGKVLVTGCLGVKKDEIIELHPNVLGVTGPHAYDEVLAQVHEHVAKPEHNPFIDLVPPQGVKLTPKHYAYLKISEGCNHRCTFCIIPSMRGDLDSRPVGDVLGEAKRLVDSGVKELLVISQDTSAYGVDVKHKTDFWDGMPVKTHMQQLCEELAKQGVWIRLHYVYPYPHVDKIIPLMAEGKILPYLDIPFQHANKRILKLMKRPGSSDRVLERIAKWREICPELVIRSTFIVGFPGETEEEFEELLNFLEEAQLDRVGCFKYSPVEGATANALPDHVSDEVMEDRLQRFMAVQAKISSDKLQVRIGQEYLILVDEVNGLGIVGRSYMDAPEVDGKVYLSDDYDAKPGDQIWVQIIHADEHDVWGVRVED” here?
A: soluble

Q: With “MIARLAIAALLVSSSLACLPGLGGLGGGCGGAAASPCAAPPMPPPVSCGGGCGAAPYPAGPMAAPYFAPAAIAPPPPPQGAVIGVGAQPAVYSAPLPAGNAYVGQGK” as the sequence, how does the “soluble on expression in E. coli” value read?
A: not soluble

Q: For “MIATYNTNVGDVLMLITANDKGEKVNFERKGKVARVFIEETGATVAWNIFEAKSLLANLSGNGQVVLSSDDIETLNKELGKSGFSDVLVHDAQPKFVVAEIVEMEDHPDSDHLHICKVNVGFADPVQIVCGAPNAALGLKTVAALPGAMMPNGSLIFPGALRGVQSYGMLCSARELELPNAPEVRGIIELSSDLSAGKAFDSETMWQALEHHHHHH”, which “soluble on expression in E. coli” value is on record?
A: soluble

Q: For “MIDDRQEEKMIKENVYFDGNVKSLGFSQQDGESTVGVMAPGQYTFGTGAPERMTVVKGALTIKRVTDADWVTFTAGEAFEVAGNSSFDLQVEVATAYLCEFLPA”, which “soluble on expression in E. coli” value is on record?
A: not soluble

Q: For “MIDEWPVPTAAAAVIGPSGVLATHGDDAKPFALASVTKLLVARAAQVAIEEGVVELDTPAGPDGSTVRHLLAHTSGVAMNSADTVAQVGQRRVYSNFGFGLLAHAIEDAAEIEFGRYLTEAVFEPLGMSTSKLLGGADAAGFGVTSTVSDLARFAGDLLRPALVSQQMHDEATSVQFPGVNGVLPGFGSQRPNDWGLGFEIRDGKTPHWTGSSNSPRTFGHFGQSGTFLWVDPVADLALLVLTDRDFGDWTYPLWPAISDGVLREIGTHLEHHHHHH”, which “soluble on expression in E. coli” value is on record?
A: not soluble

Q: For “MIDHTHLRLFQFCDSQFPTGAFSHSFGLETYIQRNIIHDDHTFIAWLKMFLQEQLTYSDGLAMRLVYDALENDDTQKVLHIDKLMFVQNLPKETRVGAKQMGTRMVKLALELYNSPWIAWYHQQMQDKKAKLNPAICFTMLGHHLGVDIETIIDYYLYQNVSSLTQNAVRAIPLGQTAGQKIVTHMIPYIEGTRKQIFELKEADFGMTAPGLELNQMAHENVNVRIFISLEHHHHHH”, which “soluble on expression in E. coli” value is on record?
A: not soluble

Q: Which “soluble on expression in E. coli” value does the source give for “MIDMFHINIPFKKDVIIEMGDCGFVDFAKLAEKTELKIACGNVEFSVVNDQKKVRTDDLYHPWSTIPSSYTDIACKVFDAEPRANVFWGYLQLKASPAKVMQGHNVYGSEDFRLCVEYLLDSLQKAQPELWELLDVGLAEMTRIDCTYSIKCANPDILRQTIKQMGNVSNRYIKPARNSDFETTLYFNRATKANPGAGRSFELCIYTKHDEIAHQLADLKRRARQGDSDRFNRIIDELSKPELQAFAANRLRFEGRAKKRFIQKHVGSANLWQVIRHAEQFEAKNGYRFCEWMFKTLFHDLLESLKGEELELYNDSKIKQLLRDAYSTMTPKLEHHHHHH” here?
A: soluble

Q: For “MIDMFPMEKGEEQETYELIVRVFHKYVAPVYSENGVARFLGMLSPEGLSEMNNGKNSFVIVARDQSKIIGMISVINDSHIALFFVSPRYQGKGIGKNILDEAIKNCLNRNPELSAVTVSSSPNSKSFYEEAGFEVIGLEHHHHHH”, which “soluble on expression in E. coli” value is on record?
A: soluble

Q: With “MIEFRDVWFWYQEGKTVLKSISFSFSEGTLAIVGPNGSGKTTLVKMLNGLLKPKKGNVLIDGINTKEVSVAELSRIVGYVFQNPDAMFFEENVFKEVAFGPKNLGLNEEEVKKRVRWALEAVGLRGFENRNPFELSGGEKQRLAIACILAMKPKYLVLDEPNTGLDERGLQDLINVIKNLRREGSSIILVTHDIELVLEVADKVLLLKDGELKFFGSTKEFFELDLEGFGLKEPELVKISKDVGINFVRNVEELLKVIGL” as the sequence, how does the “soluble on expression in E. coli” value read?
A: soluble

Q: Which “soluble on expression in E. coli” value does the source give for “MIEIHKKFLEKDELFQFLKVAKYHHSPQNSFEVFTTLAYTGMRAGELLALKWSDIDFENNTISITKTYYNPNNNKKHYQILTRKTESSIGKITVDPHVIQLLKDYKVNVQDTWKNELYVDNNFVFTDVNGYPLVIKKLQLWIKAILKKTDITNKQISTHSFRYTHYALLIEAGVHIKEIQERLRHKDINTTMNIYAKITNSYKKDASQKFSKLEHHHHHH” here?
A: not soluble

Q: Which “soluble on expression in E. coli” value does the source give for “MIEIKQVKTQDEVNYTFVEKLMHTAFPQEERRDTVQQREYSDNNPRFCNNIILENGNSIGMISYWTMGDFYYIEHFAIDPSLRNGGYGKRVLEMIKKQLKGPIVLEVEEPNDEMSTRRIHFYKRLEFTLHKKPYIQPPYRKGDSGLPMLLMTYGDIDMESDFEKVKKTLYKEVYGQEI” here?
A: not soluble

Q: With “MIELEGVPELIDPVMVAAFEGWNDAGDAASTAVAHLDREWKGEVFAALDAEDYYDFQVNRPTVWLDGGVRKITWPTTRLSVVRVGGEKPRDLVLVRGIEPSMRWRSFCNELLAFAHELGVELVVVLGALLGDTPHTRPVPVSGVTSDPDLARTMDLEETKYEGPTGIVGILQEACTHAGVPAVSLWAAVPHYVSQPPNPKATLALLNRLEDLIDVRIPLGELPEDARAWQVGVDQLAAEDSEVAEYVQSLEEARDTAELPEASGEAIAREFERYLRRRDGGGPAAGGHATADGSDGTSYLRDAPGGRTRPPKPPKPEAEDDGPADEGSDDSSED” as the sequence, how does the “soluble on expression in E. coli” value read?
A: not soluble

Q: Which “soluble on expression in E. coli” value does the source give for “MIEVIFLGTGGIKPTPERNVPSIAIKIGGEIILFDVGEGTLRQMEIARISPMKIKRVFITHFHGDHYLGLPALIQTMSLWKRKDPLHIYGPEGSSTFLQNLLNSGYFAPSFDILVHEISGKSRLKFKEYEVWAFEVSHGVPALGYVFKEKDKRGNFNLKKIKELGLEPGPWMKELERQKIIEINGKIVRLLEVTGPKKRGAKVVYSGDTEPCDEVIEFSRRGTLLIHEATYVNEEDRKDSYHTTIEEACEIWKKSKARKLVLFHRSPRYSFKEYKEKALSICPQAIIPRDFDRIAIEGAGDVLFKIR” here?
A: soluble

Q: For “MIEVKPETPDDWWEVEALYDLCFAPGRTALSSYRLRDDVPPVAGLSLVARDSDGTLAGAIRFWPVHVGDLDALLLGPVAVHPTHQGEGLGGFLIQEGLEAGREGGWARVMLVGDAPYYSRFGFARLEGVEMPPPTNPDRVLGLEL”, which “soluble on expression in E. coli” value is on record?
A: not soluble

Q: For “MIGMDHLAIGTYEGFLIGYDIDTQPNDPKTTTGCTLRYAYAAHERSIRCIAGSFPILASASVDESIKVYQLDQLQELATLYDLQVPVNSVDIQLQGGLLSGGEDGKLVYYPYGGWSKPKYLKGHKGNVHSVALHPTGQICLSVARDKCLKLWKTNGDCVCSLELPDEAFIVKWTEDGQGWVIATQTSFSVHSLQTGLIQQWEYSTRLVCLCALTNDIFVVGGMDGHLRVGENKPIQVHKVDGGSLVKGIGVGRDGCIYSLSSKGVLEMVAPSRQLEIQNGVVKRYIE”, which “soluble on expression in E. coli” value is on record?
A: not soluble

Q: With “MIGPISQINISGGLSEKETSSLISNEELKNIITQLETDISDGSWFHKNYSRMDVEVMPALVIQANNKYPEMNLNLVTSPLDLSIEIKNVIENGVRSSRFIINMGEGGIHFSVIDYKHINGKTSLILFEPANFNSMGPAMLAIRTKTAIERYQLPDCHFSMVEMDIQRSSSECGIFSFALAKKLYIERDSLLKIHEDNIKGILSDGKNPLPHDKLDPYLPVTFYKHTQGKKRLNEYLNTNPQGVGTVVNKKNETIVNRFDNNKSIVDGKELSVSVHKKRIAEYKTLLKV” as the sequence, how does the “soluble on expression in E. coli” value read?
A: not soluble

Q: With “MIGYLRGLAVIVEDVEFARRLYKEGFYGRFLGYDKVKRDEVEKINAPLILGLYEALYLAEKGRLKVMGEDGREVAPEELAALGRERMRNFDEIYKIYKYFRDLGYVVKSGLKFGALFSVYEKGPGIDHAPMVVVFLEPDKGISATDITRGGRLSHSVRKTWTLATVLRQTGEVVLLGFGWARL” as the sequence, how does the “soluble on expression in E. coli” value read?
A: soluble

Q: For “MIHEASIQHGSFGKMVADWPQEKITELWAYLKKHGSRLGGNTGPYTLRQMGADTFILSNDVEAYLRNCKIIEGGKDTKKSHDAATQAFMQWQKESGRSLTEISQIIAFSTGDNRL”, which “soluble on expression in E. coli” value is on record?
A: not soluble

Q: Which “soluble on expression in E. coli” value does the source give for “MIIKDILRENQDFRFRDLSDLKHSPKLCIITCMDSRLIDLLERALGIGRGDAKVIKNAGNIVDDGVIRSAAVAIYALGDNEIIIVGHTDCGMARLDEDLIVSRMRELGVEEEVIENFSIDVLNPVGDEEENVIEGVKRLKSSPLIPESIGVHGLIIDINTGRLKPLYLDE” here?
A: soluble

Q: With “MIIKPRIRGFICTTTHPVGCEANVKEQIAYTKAQGPIKNAPKRVLVVGASSGYGLSSRIAAAFGGGASTIGVFFEKEGTEKKPGTAGFYNAAAFEKLAREEGLYAKSLNGDAFSNEAKQKTIDLIKEDLGQVDMVVYSLASPVRKMPETGELIRSALKPIGETYTSTAVDTNKDVIIEASVEPATEEEIKDTVTVMGGEDWELWINALSDAGVLAEGCKTVAYSYIGTELTWPIYWDGALGKAKMDLDRAAKALNEKLGATGGSANVAVLKSVVTQASSAIPVMPLYIAMVFKKMREEGVHEGCMEQIYRMFSQRLYKEDGSAAEVDDMNRLRLDDWELREDIQQHCRELWPQITTENLKELTDYVEYKEEFLKLFGFGVEGVDYEADV” as the sequence, how does the “soluble on expression in E. coli” value read?
A: not soluble

Q: For “MIITDDHMHLYNHLKLKALEQFRDAGGTHVFLVNLLCHHYGIRPTSGKDFREVFERHLSLVEKANKIVKAYAVLGVHPAEITVIGDRIGHEKAAEMMKEALEIAGKYVEEGKAVALKSGRPHYPVSRHVWQLSNDVLRHAFEVAKDVGCAIQLHTESYTKEGMLEIAKMADEVGLKREKVVKHFSPPLIKEFEEIGIFPSVLAGNNNVLKAAEQGNRFTVETDYIDDRKRPGAVLGPKTVPRKVKELIELGYEDIAYKICVENVEKVYGV”, which “soluble on expression in E. coli” value is on record?
A: not soluble
